Results: the supplement of paper PMC9170038

Test system: MS2 coat protein
Assay: apparent KD of MS2 coat protein; designed switch direction (-1 OFF switch, 1 ON switch): -1; higher = weaker reporter binding
Outline: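 RNA switches sharing common flanks were transcribed by stalled E. coli RNA polymerase on Illumina chips. A doubling series of SNAP-549-labelled MS2 coat protein, from 0.7 or 1.5 nM to 3 µM, was applied in Tris-HCl pH 7.5 buffer with KCl, MgCl2, BSA, DTT, tRNA and Tween-20. Each step lasted 0.8–1.5 h at the bottom of the series and 10–20 min at the top. Normalised cluster fluorescence was curve-fitted, giving apparent KD as the per-design median over clusters.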

[1] = input ligand: microRNA oligo, concentration not stated
[2] = Eterna round: R95, input ligand: microRNA oligo, concentration not stated
[3] = Eterna round: R95, input ligand: FMN 200 uM
[4] = Eterna round: R95, input ligand: none

Row | Sequence | apparent KD of MS2 coat protein (input ligand: FMN 200 uM) | apparent KD of MS2 coat protein (input ligand: none) | also measured
1 | UCUGUUAUGCGAGGAUAUCGACCAUUCCUCUUAACAUGAGGAUCACCCAUGUGCUAAUCCUUCAACGAGAAGGCGCUCUUACUC [JR_ExcNG2_Sub069] (Eterna round: R96, puzzle: Exclusion NG 2) | 346 nM | 268 nM | apparent KD of MS2 coat protein [1]: 114 nM
2 | UCUUAUUGCAAGGAUAUGCUUUUUAUUUCUUUUGCAGAAGGUGCAACAUGAGGAUCACCCAUGUUUCCGGGUAU [JR_E6_Sub034] (puzzle: Exclusion 6) | – | – | apparent KD of MS2 coat protein [2]: 23.8 nM
3 | UCUUCACAUGAGGAUCACCCAUGUGAGGAUAUGGUUUCGCUGGCCGUAGCCAGUGGAACCAGAAGGCGCAUGAU [Mat - Exclusion 1 - JL Mod - D7] (Eterna round: R97, puzzle: Exclusion 1) | 21.5 nM | 26.1 nM | –
4 | UCUUGCUGGCGAGGAUAUCCUGUGCGGUUCCGGCUCGUGUCUGUUACAUGAGGAUCACCCAUGUGGGAGAAGGUGUCUGUGGCC [Design 97] (Eterna round: R96, puzzle: Exclusion NG 2) | 18.6 nM | 21.9 nM | apparent KD of MS2 coat protein [1]: 16.7 nM
5 | UGAAAGGUAGGAUAUACGAAGAAAAAGGGUAGAAUAAUAACACAUGAGGAUCACCCAUGUAGAAGGACCAAAGG [Mat - Exclusion 2 - Mod of my Tesla design - D9] (puzzle: Exclusion 2) | – | – | apparent KD of MS2 coat protein [3]: 70.1 nM; apparent KD of MS2 coat protein [2]: 23.2 nM; apparent KD of MS2 coat protein [4]: 25.2 nM
6 | UGAAUGUCAGAGGAUAUGCACGAUUGGACCGAGGCAGAAGGCUGAACAUGAGGAUCACCCAUGUCAAGAUCUUC [Eternabot (L1) Solution 93] (Eterna round: R97, puzzle: Exclusion 6) | 180 nM | 26.3 nM | –
7 | UGAGAACAUGAGGAUCACCCAUGUAAGGAUAUGCGAAGAGUUUGGAGAGGUUGAGGAGGCAGAAGGUACGGGAG [JR_Exclu1_Sub045] (puzzle: Exclusion 1) | – | – | apparent KD of MS2 coat protein [3]: 50.2 nM; apparent KD of MS2 coat protein [2]: 49.9 nM; apparent KD of MS2 coat protein [4]: 74.3 nM
8 | UGAGCUGAAGGAUAUGCGUAAUCACGGUGACGUGUAGAUCUACAUGAGGAUCACCCAUGUAGAAGGUCAGUUCU [Mat - Exclusion 2 - JL Mod - D33] (Eterna round: R97, puzzle: Exclusion 2) | 17 nM | 16.1 nM | –
9 | UGAGCUUCAGGAUAUACGUGACGUCCGUGAGGACGAAGGUUACAUGAGGAUCACCCAUGUAGAAGGGAAGUUCU [Mat - Exclusion 2 - JL Mod - D31] (Eterna round: R97, puzzle: Exclusion 2) | 60.8 nM | 31.6 nM | –
10 | UGAGUGCGUGUUAGGAUAUGGUUUGGUAUUUCGGGCUAGAAGGGACAUGAGGAUCACCCAUGUAAUUGGCGGGU [-17.2, -16.9 kcal, 22% A] (Eterna round: R97, puzzle: Brourd's mod of Exclusion 4) | 259 nM | 227 nM | –
11 | UGAGUGUUAGGAUAUCGCGGUUAGGCGAGUUGCUUAAUGAUCGAGAAGGGACAUGAGGAUCACCCAUGUGGGAC [Eternabot (L1) Solution 40] (Eterna round: R97, puzzle: Exclusion 4) | 127 nM | 112 nM | –
12 | UGAUCUAGCGGAGGAUAUACAUGAGGAUCACCCAUGUAUAGUCCAUGUGGUGACACGUGGAACAUGUAGAAGGCCGCUAGAUCU [JL ENG2 3.83] (Eterna round: R96, puzzle: Exclusion NG 2) | 228 nM | 23.1 nM | apparent KD of MS2 coat protein [1]: 24.8 nM
13 | UGAUCUAGGCGAGGAUAUACAUGAGGAUCACCCAUGUAAACGUGACAUGAAAACAUGUCACGAAUGUAGAAGGCGCCUAGAUCU [JL ENG2 3.54] (Eterna round: R96, puzzle: Exclusion NG 2) | 21.7 nM | 13.3 nM | apparent KD of MS2 coat protein [1]: 13.2 nM
14 | UGAUCUUUUGUUAGGAUAUGCUGUUGUUUUCAACAGCAGAAGGGACAUGAGGAUCACCCAUGUCUUGUCAUAAA [Magic-04] (puzzle: Brourd's mod of Exclusion 4) | – | – | apparent KD of MS2 coat protein [2]: 12.7 nM
15 | UGAUCUUUUGUUAGGAUAUGCUGUUUUUUUUUACAGCAGAAGGGACAUGAGGAUCACCCAUGUCUUGUCAUAAA [Magic-05] (puzzle: Brourd's mod of Exclusion 4) | – | – | apparent KD of MS2 coat protein [2]: 12.4 nM
16 | UGAUGACAUGAGGAUCACCCAUGUCAGGAUAUGCUUCGGCUUCGGAAAUGAAGUUGAAGUAGAAGGGACUGUCG [-27.1, -24.1 kcal, A 28% sequence 3 bis] (Eterna round: R97, puzzle: Exclusion 1) | 37.7 nM | 27.8 nM | –
17 | UGAUGUACUCAGGAUAUGAGUAGCUUUCGAGCAUCAGAAGGGAGUACAUGAGGAUCACCCAUGUUGGCCAUGUU [EX6 C.9] (Eterna round: R97, puzzle: Exclusion 6) | 81.2 nM | 683 nM | –
18 | UGAUUCCUAGGAUAUGCUGGAUAUGAGGUCCCGAGUUGCCGACAUGAGGAUCACCCAUGUAGAAGGAGGUGUCG [Eternabot (L1) Solution 66] (Eterna round: R97, puzzle: Exclusion 2) | 199 nM | 105 nM | –

Row | Sequence | apparent KD of MS2 coat protein (input ligand: FMN 200 uM) | apparent KD of MS2 coat protein (input ligand: none) | also measured
19 | UGCAAGCUUUUAAGAUCCUACAUGAGGAUCACCCAUGUGGCUCGUCUUAUACGUACUGUGACGAAAGUCACGGUACG [JL TOV1 3.98] (Eterna round: R97, puzzle: Sensor, turn-off variant 1) | 25.4 nM | 22.8 nM | –
20 | UGCAAGCUUUUGAGAUCCUACAUGAGGAUCACCCAUGUGCUCGUCUUAUAACGUACUGUGACGAAAGUCACGGUACG [JL TOV1 3.97] (Eterna round: R97, puzzle: Sensor, turn-off variant 1) | 184 nM | 222 nM | –
21 | UGCAUGCUAGGAUAUACGAAACAUUAGGGUUCGUCGUAUGAACAUGAGGAUCACCCAUGUAGAAGGAGCGUGCU [Mod6 of JL-ex2-2.15 mat747 mod] (puzzle: Exclusion 2) | – | – | apparent KD of MS2 coat protein [2]: 16.8 nM
22 | UGCAUGCUAGGAUAUACGGGACAUUAGGGUUCGUCGUAUGGACAUGAGGAUCACCCAUGUAGAAGGAGCGUGCU [Mod4 of JL-ex2-2.15 mat747 mod] (puzzle: Exclusion 2) | – | – | apparent KD of MS2 coat protein [2]: 18.7 nM
23 | UGCCCGGUUAGAGGAUAUCUACUGUGACUGGGUUUUCCAAAACAUGAGGAUCACCCAUGUGACGGAGAGAAGGCUAGCCUUAAA [Anedanage] (Eterna round: R96, puzzle: Exclusion NG 2) | 26.8 nM | 40.1 nM | apparent KD of MS2 coat protein [1]: 31.1 nM
24 | UGCCUAUGAGGAUAUACGUAGAAAUAGAUUCAUGUAAAACUACAUGAGGAUCACCCAUGUAGAAGGCAUGGGCU [Mat - Exclusion 2 - JL Mod - D49] (Eterna round: R97, puzzle: Exclusion 2) | 27.5 nM | 16 nM | –
25 | UGCGAAGAGUGAGGAUAUGUGCGACAAAGUUGCACAGAAGGCACAUGAGGAUCACCCAUGUGAGCUAGGUCGAAAGACCUAGCG [Omei Exc(NG)1 Av7] (Eterna round: R96, puzzle: Exclusion NG 1) | 43.4 nM | 24.8 nM | apparent KD of MS2 coat protein [1]: 17.3 nM
26 | UGCGAGUAAGGAUAUUCGCGACCACCCACAAGGGCGGUCGAGAAGAAGGUACUUGAGGAUCACCCAAGUCCUAA [Inraindi] (Eterna round: R97, puzzle: Exclusion 4) | 95.5 nM | 20.2 nM | –
27 | UGCGUUCAAGGAUAUACAUGAGGAUCACCCAUGUGGAUGGCCGUUGUGUGAACACUUAGUAGAAGGUGACACGG [Eternabot (L2) Solution 5] (Eterna round: R97, puzzle: Exclusion 3) | 51.8 nM | 71.2 nM | –
28 | UGCUACGGAGGAUAUACAUGAGGAUCACCCAUGUGAGAGAUUUAGCCGAGAGGCUAGUGUAGAAGGCCGUAGCU [jl-ex3-4.17 jl mod] (Eterna round: R97, puzzle: Exclusion 3) | 400 nM | 62.8 nM | –
29 | UGCUGACGAGGAUAUACAUGAGGAUCACCCAUGUAAGAUCAGCGACGAUAGUCGCAAUGUAGAAGGCGUCAGCA [E3/10-A3] (Eterna round: R97, puzzle: Exclusion 3) | 228 nM | 28.5 nM | –
30 | UGCUGACGAGGAUAUACAUGAGGAUCACCCAUGUUGGUUCAGCGACGAUAGUCGCAAUGUAGAAGGUGUCAGCA [E3/9-B2] (Eterna round: R97, puzzle: Exclusion 3) | 748 nM | 97.2 nM | –
31 | UGCUGACGAGGAUAUACAUGAGGAUCACCCAUGUUGGUUCAGCGACUUCGGUCGCAAUGUAGAAGGCGUCAGCA [E3/9-A5] (Eterna round: R97, puzzle: Exclusion 3) | 230 nM | 523 nM | –
32 | UGGAGUAUGUAGGAUAUUCAGGCAAAGAAAGCCGAAGAAGGACAUACUUGAGGAUCACCCAAGUUGUCCAAAAU [Zaanatatri] (Eterna round: R97, puzzle: Exclusion 6) | 25.8 nM | 15.1 nM | –
33 | UGGCCACAUGAGGAUCACCCAUGUCAGGAUAUCGGAUAUAUUGUGGUUUUAAGACCAACGAGAAGGGACGGGUC [Eternabot (L1) Solution 9] (Eterna round: R97, puzzle: Exclusion 1) | 119 nM | 139 nM | –
34 | UGGGAACGAGGAUAUCGAUGGUGGAACAUGAGGAUCACCCAUGUAUGAGAUAGUGUAGGGCGAGAAGGCGUUAAGU [JR_E5_Sub052] (puzzle: Exclusion 5) | – | – | apparent KD of MS2 coat protein [2]: 76.7 nM
35 | UGGGUUACAGGAUAUACAUGAGGAUCACCCAUGUCAUGUUUCGUGGCGGAUAGCUCGAGUAGAAGGGUGCAUCC [Diorus] (puzzle: Exclusion 3) | – | – | apparent KD of MS2 coat protein [2]: 36.6 nM
